The text below walks through data of patent publication US7910111.

The target of assay [1] is Endogenous NSF of human aortic endothelial cells (HAEC) (human) (UniProt P46459). In words: cell-based or functional assay.
Assay [2] concerns the target Recombinant RGS-(His)6-NSF (N-ethylmaleimide sensitive factor), wild-type (UniProt P18708). In words: cell-based or functional assay.

Recombinant RGS-(His)6-NSF (N-ethylmaleimide sensitive factor), wild-type, sequence (P18708 other isoform, or with tags, fused parts or gaps limits assumed): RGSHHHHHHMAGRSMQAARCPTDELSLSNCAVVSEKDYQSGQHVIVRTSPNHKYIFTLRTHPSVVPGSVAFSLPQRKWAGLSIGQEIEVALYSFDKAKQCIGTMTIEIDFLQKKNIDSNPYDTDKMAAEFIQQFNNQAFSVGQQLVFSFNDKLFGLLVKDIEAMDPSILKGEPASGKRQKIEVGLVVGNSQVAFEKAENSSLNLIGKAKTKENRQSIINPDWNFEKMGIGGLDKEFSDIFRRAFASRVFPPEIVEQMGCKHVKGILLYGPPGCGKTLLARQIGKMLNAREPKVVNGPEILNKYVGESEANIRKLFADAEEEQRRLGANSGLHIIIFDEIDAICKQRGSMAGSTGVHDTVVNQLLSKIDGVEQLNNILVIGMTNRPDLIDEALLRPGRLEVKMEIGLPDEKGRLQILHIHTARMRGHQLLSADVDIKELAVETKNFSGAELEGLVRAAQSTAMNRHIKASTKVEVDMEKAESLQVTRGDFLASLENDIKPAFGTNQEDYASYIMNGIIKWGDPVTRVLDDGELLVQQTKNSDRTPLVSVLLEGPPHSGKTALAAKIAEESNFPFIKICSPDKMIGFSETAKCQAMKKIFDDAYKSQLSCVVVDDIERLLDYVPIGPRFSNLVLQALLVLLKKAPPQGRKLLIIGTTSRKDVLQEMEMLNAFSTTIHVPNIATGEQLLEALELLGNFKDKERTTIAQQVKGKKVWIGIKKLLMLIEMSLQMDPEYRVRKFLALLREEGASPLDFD

With TAT-NSF81 (peptide), the IC50% of endothelial exocytosis (vWF release) in assay [1] lay in the range of 1 to 10 µM. Besides, the IC50% of NSF ATPase activity in assay [2] fell in the range of 1 to 10 µM.
